Assay results as given in patent US20230136301A1, “Corticosteriod Reduction in Treatment with Anti-CD38 Antibody” (Janssen Biotech, Inc., priority 2021, published 2023).
Values joined by “and” are separate entries in the source; they are usually repeats but may differ in a detail not shown here. Equal values may be shown once.

Columns and labels:
[1] = system: patients with multiple myeloma; details: cited from earlier work
patients with RRMM = experiment: PAVO Part 3: treatment-emergent adverse events with DARA SC and corticosteroid tapering
Method: The PAVO (MMY1004) trial is an open-label, nonrandomized, multicenter, phase lb study consisting of 3 parts. […] Safety was assessed, with an emphasis on IRRs, while corticosteroids were reduced and discontinued.
The purpose of Part 3 was to evaluate the safety of daratumumab 1,800 mg SC delivery without predose and postdose corticosteroids after a 3-week, 2-week, and 1-week tapering schedule to assess the safety of corticosteroid-free SC daratumumab administration. A total of 42 participants were treated. […] In conjunction, patients also received a 3-week, 2-week, or 1-week steroid tapering schedule (FIG. 2). The 3-week tapering schedule (corticosteroid-free by Cycle 1 Day 22) consisted of methylprednisolone (MP) given orally (PO)/IV pre-dose (Cycle 1 Day 1, 100 mg; Cycle 1 Day 8, 60 mg; Cycle 1 Day 15, 30 mg) and PO post-dose (Cycle 1 Day 1, 20 mg for 2 days; Cycle 1 Day 8, 20 mg for 1 day; Cycle 1 Day 15, 20 mg for 1 day). The 2-week tapering schedule (corticosteroid-free by Cycle 1 Day 15) consisted of MP given PO/IV pre-dose (Cycle 1 Day 1, 100 mg; Cycle 1 Day 8, 60 mg) and PO post-dose (Cycle 1 Day 1, 20 mg for 2 days; Cycle 1 Day 8, 20 mg for 1 day). The 1-week tapering schedule (corticosteroid-free by Cycle 1 Day 8) consisted of dexamethasone 20 mg administered IV pre-dose on Cycle 1 Day 1, without post-dose administration.
The 3-week, 2-week and 1-week steroid tapering schedules were assessed by “3+3” design, followed by cohort expansion to approximately 15 patients (3-week and 2-week tapering cohorts) or 12 patients (1-week tapering cohort). The dose-limiting toxicity (DLT) assessment period in the 3-week, 2-week and 1-week tapering cohorts were Cycle 1 Day 1 through Cycle 2 Day 4, Cycle 1 Day 1 through Cycle 1 Day 25, and Cycle 1 Day 1 through Cycle 1 Day 11, respectively. […] Grade 3 or 4 IRRs only qualified as DLTs if they occurred during corticosteroid reduction or discontinuation (not during Cycle 1 Day 1). For the 3-week and 2-week groups, IRRs reported at Cycle 1 Day 1 were not considered DLTs, as corticosteroids had not yet been reduced or discontinued. Up to approximately 12 patients could be enrolled in the 1-week tapering schedule to assess safety, including IRRs.
Safety assessments included treatment-emergent adverse events (TEAEs), serious adverse events, and IRRs. All toxicities were graded according to the National Cancer Institute's Common Terminology for the Classification of Adverse Events (NCI-CTCAE) Version 4.03 (National Cancer Institute. Common Terminology Criteria for Adverse Events (CTCAE): Version 4.03.).
The safety and efficacy populations, defined as all patients who received ≥1 dose of study drug, was the primary population for analysis. […] The pharmacokinetic-evaluable population was defined as all patients who received ≥1 dose of study drug and provided ≥1 post-infusion pharmacokinetic sample. The immunogenicity population was defined as all patients who received ≥1 dose of study drug and provided ≥1 post-infusion immunogenicity sample.

Substance: DARA SC: 1,800 mg daratumumab co-formulated with 30,000 U rHuPH20 (2,000 U/mL, 15 mL), manual subcutaneous injection
- Median PFS ([1]; COLUMBA primary analysis): 5.6 months
- Median duration of response ([1]; COLUMBA, follow-up 7.5 months): not reached
- Overall response rate ([1]; COLUMBA, median follow-up 7.5 months): 41%
- Grade ≥3 TEAEs, participants (patients with RRMM; 1-week taper): 33.3%
- Nausea, participants (patients with RRMM; 1-week taper): 16.7%
- Nervous system disorders (patients with RRMM; 1-week taper): 16.7%
- Anemia, any grade TEAE (patients with RRMM; 1-week taper n=12): 4 (33.3) n (%) and 4 (33.3%) n (%)
- Anemia, grade ≥3 TEAE (patients with RRMM; 1-week taper n=12): 2 (16.7%) n (%) and 2 (16.7) n (%)
- Any TEAE (patients with RRMM; 1-week taper n=12): 12 (100)^ n (%) and 12 (100.0%) n (%)
- Any grade ≥3 TEAE (patients with RRMM; 1-week taper n=12): 4 (33.3) n (%) and 4 (33.3%) n (%)
- Arthralgia, any grade TEAE (patients with RRMM; 1-week taper n=12): 3 (25.0) n (%) and 3 (25.0%) n (%)
- Asthenia, any grade TEAE (patients with RRMM; 1-week taper n=12): 4 (33.3) n (%) and 4 (33.3%) n (%)
- Back pain, TEAE (patients with RRMM; 1-week taper n=12): 2 (16.7%) n (%)
- Blood and lymphatic system disorders (SOC), TEAE (patients with RRMM; 1-week taper n=12): 4 (33.3%) n (%)
- Blood and lymphatic system disorders (SOC), grade 3 or higher TEAE (patients with RRMM; 1-week taper n=12): 2 (16.7%) n (%)
- Bone pain, TEAE (patients with RRMM; 1-week taper n=12): 2 (16.7%) n (%)
- Bone pain, grade ≥3 TEAE (patients with RRMM; 1-week taper n=12): 1 (8.3) n (%) and 1 (8.3%) n (%)
- Chills, TEAE (patients with RRMM; 1-week taper n=12): 2 (16.7%) n (%)
- Constipation, TEAE (patients with RRMM; 1-week taper n=12): 2 (16.7%) n (%)
- Cough, any grade TEAE (patients with RRMM; 1-week taper n=12): 0 n (%)
- Decreased appetite, TEAE (patients with RRMM; 1-week taper n=12): 1 (8.3%) n (%)
- Diarrhea, any grade TEAE (patients with RRMM; 1-week taper n=12): 4 (33.3) n (%) and 4 (33.3%) n (%)
- Dizziness, any grade TEAE (patients with RRMM; 1-week taper n=12): 0 n (%)
- Erythema, any grade TEAE (patients with RRMM; 1-week taper n=12): 0 n (%)
- Fatigue, any grade TEAE (patients with RRMM; 1-week taper n=12): 1 (8.3) n (%) and 1 (8.3%) n (%)
- Gastrointestinal disorders (SOC), TEAE (patients with RRMM; 1-week taper n=12): 8 (66.7%) n (%)
- General disorders and administration site conditions (SOC), TEAE (patients with RRMM; 1-week taper n=12): 9 (75.0%) n (%)
- Headache, any grade TEAE (patients with RRMM; 1-week taper n=12): 1 (8.3) n (%) and 1 (8.3%) n (%)
- Lymphopenia, grade ≥3 TEAE (patients with RRMM; 1-week taper n=12): 1 (8.3) n (%) and 1 (8.3%) n (%)
- Metabolism and nutrition disorders (SOC), TEAE (patients with RRMM; 1-week taper n=12): 1 (8.3%) n (%)
- Muscle spasms, any grade TEAE (patients with RRMM; 1-week taper n=12): 3 (25.0) n (%)
- Musculoskeletal and connective tissue disorders (SOC), TEAE (patients with RRMM; 1-week taper n=12): 8 (66.7%) n (%)
- Musculoskeletal and connective tissue disorders (SOC), grade 3 or higher TEAE (patients with RRMM; 1-week taper n=12): 1 (8.3%) n (%)
- Nasopharyngitis, any grade TEAE (patients with RRMM; 1-week taper n=12): 1 (8.3) n (%) and 1 (8.3%) n (%)
- Nausea, any grade TEAE (patients with RRMM; 1-week taper n=12): 2 (16.7) n (%) and 2 (16.7%) n (%)
- Nervous system disorders (SOC), TEAE (patients with RRMM; 1-week taper n=12): 2 (16.7%) n (%)
- Neutropenia, grade ≥3 TEAE (patients with RRMM; 1-week taper n=12): 0 n (%)
- Oropharyngeal pain, TEAE (patients with RRMM; 1-week taper n=12): 0 n (%)
- Pain in extremity, any grade TEAE (patients with RRMM; 1-week taper n=12): 3 (25.0) n (%) and 3 (25.0%) n (%)
- Patients with a serious TEAE (patients with RRMM; 1-week taper n=12): 4 (33.3%) n (%)
- Peripheral edema, any grade TEAE (patients with RRMM; 1-week taper n=12): 4 (33.3) n (%) and 4 (33.3%) n (%)
- Pyrexia, any grade TEAE (patients with RRMM; 1-week taper n=12): 3 (25.0) n (%) and 3 (25.0%) n (%)
- Respiratory, thoracic and mediastinal disorders (SOC), TEAE (patients with RRMM; 1-week taper n=12): 1 (8.3%) n (%)
- Skin and subcutaneous tissue disorders (SOC), TEAE (patients with RRMM; 1-week taper n=12): 0 n (%)
- Vomiting, TEAE (patients with RRMM; 1-week taper n=12): 2 (16.7%) n (%)
- TEAEs with an outcome of death (patients with RRMM; 1-week taper, neither treatment-related): 2 participants
- Grade 5 TEAEs (patients with RRMM; 1-week taper, staphylococcal pneumonia and pulmonary embolism): 2 (16.7%) n (%)
- Grade ≥3 TEAEs, participants (patients with RRMM; 2-week taper): 53.3%
- Nausea, participants (patients with RRMM; 2-week taper): 20%
- Nervous system disorders (patients with RRMM; 2-week taper): 26.7%
- TEAEs with an outcome of death (patients with RRMM; 2-week taper): No deaths
- Anemia, any grade TEAE (patients with RRMM; 2-week taper n=15): 2 (13.3) n (%) and 2 (13.3%) n (%)
- Anemia, grade ≥3 TEAE (patients with RRMM; 2-week taper n=15): 1 (6.7) n (%) and 1 (6.7%) n (%)
- Any TEAE (patients with RRMM; 2-week taper n=15): 15 (100)^ n (%) and 15 (100.0%) n (%)
- Any grade ≥3 TEAE (patients with RRMM; 2-week taper n=15): 8 (53.3) n (%) and 8 (53.3%) n (%)
- Arthralgia, any grade TEAE (patients with RRMM; 2-week taper n=15): 4 (26.7) n (%) and 4 (26.7%) n (%)
- Asthenia, any grade TEAE (patients with RRMM; 2-week taper n=15): 2 (13.3) n (%) and 2 (13.3%) n (%)
- Back pain, TEAE (patients with RRMM; 2-week taper n=15): 3 (20.0%) n (%)
- Blood and lymphatic system disorders (SOC), TEAE (patients with RRMM; 2-week taper n=15): 3 (20.0%) n (%)
- Blood and lymphatic system disorders (SOC), grade 3 or higher TEAE (patients with RRMM; 2-week taper n=15): 3 (20.0%) n (%)
- Bone pain, TEAE (patients with RRMM; 2-week taper n=15): 3 (20.0%) n (%)
- Bone pain, grade ≥3 TEAE (patients with RRMM; 2-week taper n=15): 1 (6.7) n (%) and 1 (6.7%) n (%)
- Chills, TEAE (patients with RRMM; 2-week taper n=15): 1 (6.7%) n (%)
- Constipation, TEAE (patients with RRMM; 2-week taper n=15): 3 (20.0%) n (%)
- Cough, any grade TEAE (patients with RRMM; 2-week taper n=15): 4 (26.7) n (%) and 4 (26.7%) n (%)
- Decreased appetite, TEAE (patients with RRMM; 2-week taper n=15): 1 (6.7%) n (%)
- Diarrhea, any grade TEAE (patients with RRMM; 2-week taper n=15): 3 (20.0) n (%) and 3 (20.0%) n (%)
- Dizziness, any grade TEAE (patients with RRMM; 2-week taper n=15): 1 (6.7) n (%) and 1 (6.7%) n (%)
- Erythema, any grade TEAE (patients with RRMM; 2-week taper n=15): 4 (26.7) n (%) and 4 (26.7%) n (%)
- Fatigue, any grade TEAE (patients with RRMM; 2-week taper n=15): 4 (26.7) n (%) and 4 (26.7%) n (%)
- Gastrointestinal disorders (SOC), TEAE (patients with RRMM; 2-week taper n=15): 7 (46.7%) n (%)
- General disorders and administration site conditions (SOC), TEAE (patients with RRMM; 2-week taper n=15): 10 (66.7%) n (%)
- Headache, any grade TEAE (patients with RRMM; 2-week taper n=15): 1 (6.7) n (%) and 1 (6.7%) n (%)
- Lymphopenia, grade ≥3 TEAE (patients with RRMM; 2-week taper n=15): 0 n (%)
- Metabolism and nutrition disorders (SOC), TEAE (patients with RRMM; 2-week taper n=15): 4 (26.7%) n (%)
- Muscle spasms, any grade TEAE (patients with RRMM; 2-week taper n=15): 0 n (%)
- Musculoskeletal and connective tissue disorders (SOC), TEAE (patients with RRMM; 2-week taper n=15): 9 (60.0%) n (%)
- Musculoskeletal and connective tissue disorders (SOC), grade 3 or higher TEAE (patients with RRMM; 2-week taper n=15): 1 (6.7%) n (%)
- Nasopharyngitis, any grade TEAE (patients with RRMM; 2-week taper n=15): 5 (33.3) n (%) and 5 (33.3%) n (%)
- Nausea, any grade TEAE (patients with RRMM; 2-week taper n=15): 3 (20.0) n (%) and 3 (20.0%) n (%)
- Nervous system disorders (SOC), TEAE (patients with RRMM; 2-week taper n=15): 4 (26.7%) n (%)
- Neutropenia, grade ≥3 TEAE (patients with RRMM; 2-week taper n=15): 3 (20.0) n (%) and 3 (20.0%) n (%)
- Oropharyngeal pain, TEAE (patients with RRMM; 2-week taper n=15): 3 (20.0%) n (%)
- Pain in extremity, any grade TEAE (patients with RRMM; 2-week taper n=15): 1 (6.7) n (%) and 1 (6.7%) n (%)
- Patients with a serious TEAE (patients with RRMM; 2-week taper n=15): 6 (40.0%) n (%)
- Peripheral edema, any grade TEAE (patients with RRMM; 2-week taper n=15): 0 n (%)
- Pyrexia, any grade TEAE (patients with RRMM; 2-week taper n=15): 2 (13.3) n (%) and 2 (13.3%) n (%)
- Respiratory, thoracic and mediastinal disorders (SOC), TEAE (patients with RRMM; 2-week taper n=15): 8 (53.3%) n (%)
- Skin and subcutaneous tissue disorders (SOC), TEAE (patients with RRMM; 2-week taper n=15): 5 (33.3%) n (%)
